The results in this text go back to paper PMC6894071.

The target of experiment [1] is EGFP-tagged bovine cationic amino acid transporter 1 (CAT1)/solute carrier family 7 member 1 (SLC7A1) (bovine) (UniProt F1N5P6). The experiment can be described thus: flow cytometry on cells.
Experiment [2] has as its target Feline CAT1/SLC7A1, endogenous in CC81-GREMG cells (feline (endogenous in CC81-GREMG)). The experiment can be described thus: flow cytometry on cells. A general note: Flow cytometry measures light scatter and fluorescence of single cells or particles in a stream.

Consider “Bovine leukemia virus envelope glycoprotein (Env) on BLV particles (from UniProt P03380 34-301; P03380 302-515) (complex)”, for which, in experiment [1], the percent APC-EGFP double-positive cells at 1 h is 18.7% and the percent APC-EGFP double-positive cells at 2 h stood at 23.7%. In experiment [2], this substance registered a percent of cells bound with BLV particles (with control serum 1:10) of 57% and a percent of cells bound with BLV particles (with control serum 1:50) of 49%.
